Results on 41 sequences are retold here after the supplement of paper PMC9170038.

The subject of data set [1] is MS2 coat protein. As to the kind of experiment: apparent KD of MS2 coat protein, switch OFF state (with FMN for OFF switches, without FMN for ON switches); designed switch direction (-1 OFF switch, 1 ON switch): -1; higher = weaker reporter binding. Particulars: FMN input: 0 or 200 uM; Eterna round: R93 (includes R88 designs). Put shortly: (§1)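 Titration buffer: 100 mM Tris-HCl pH 7.5, 80 mM KCl, 4 mM MgCl2, without or with constant ligand. Designed RNA switches transcribed on-chip from Illumina sequencing clusters received SNAP-549-labelled MS2 coat protein in twofold steps from 0.7 or 1.5 nM to 3 µM. Apparent KD is the median per design of fits to normalised cluster binding curves.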

Data set [2] concerns MS2 coat protein. As to the kind of experiment: apparent KD of MS2 coat protein, switch ON state; designed switch direction (-1 OFF switch, 1 ON switch): -1; higher = weaker reporter binding. Particulars: FMN input: 0 or 200 uM; Eterna round: R93 (includes R88 designs). The gist of the method:
as §1

“AUAAAACAUGAGGAUCACCCAUGUGAGGAUAUGCGAAAUAAAGAAAUAAAUAAAUAAAGCAGAAGGCACAAUAA [Ex 1 Tesla 1]”: the “apparent KD of MS2 coat protein” value was determined as 21.9 nM in the data set with MS2 coat protein [1] and 34.6 nM in the data set on MS2 coat protein [2].
On the same counts, the results for “AAAAAGUGAGGAUAUGGAAAAAAAAAAAAAAAAAAAAAAAACCAGAAGGCACAUGAGGAUCACCCAUGUAAAAA [low kcal]” are 30.9 nM and 38.6 nM.
Consider “AAAAAACAUGAGGAUCACCCAUGUGAGGAUAUGCUAUGGAAAAUAAAAAUAAAACAUAGCAGAAGGCACAAUGU [Denovo 5]”, for which the “apparent KD of MS2 coat protein” value worked out at 85.2 nM in the data set on MS2 coat protein [1] and 50.9 nM in the data set on MS2 coat protein [2].
For “AACAAACAUGAGGAUCACCCAUGUCAGGAUAUCCGAAAUAAAGAAACAAUAAUAAUAAGGAGAAGGGACUAAAU [Ex1 sub 2]” the same measures were 34.1 nM and 35.5 nM.
In the case of “GAAAAACAUGAGGAUCACCCAUGUUAGGAUAUGCUAUGGAAAAAUAAAAUAAAACAUAGCAGAAGGGACAAAAG [Mat - Exclusion 1 - Eli mod - D29]”, the “apparent KD of MS2 coat protein” value was found to be 88.5 nM in the data set with MS2 coat protein [1] and 24.7 nM in the data set on MS2 coat protein [2].
Regarding “AAAGGACGAGGAUAUACAUGAGGAUCACCCAUGUAAAAAACAUAGUAAAAGGGCUUGUGUAGAAGGCGUCCAAA [Meechl Ex3 2 R2 v10]”, the “apparent KD of MS2 coat protein” value in the data set on MS2 coat protein [1] was found to be 35.6 nM; with MS2 coat protein [2], 173 nM.
On the same counts, the results for “AACUGACAUGAGGAUCACCCAUGUCAGGAUAUGACAUCGAAAAAUAAAUAAAUCGUUGUCAGAAGGGACAUGGA [Design 74: Sub-opt RB]” are 38 nM and 25.1 nM.
Regarding “AAAUACUAAGGAUAUACAUGAGGAUCACCCAUGUACAAACCCGUGGAACGGAUCGUUAGUAGAAGGUGGACAAA [Zaanrion]”, the “apparent KD of MS2 coat protein” value with MS2 coat protein [1] stood at 15.4 nM; in the data set on MS2 coat protein [2] it was 15.6 nM.
Regarding “AGCUAGUCAGGAUAUACAAACAUGUCAAAAGACGUGAAAAGACAUGAGGAUCACCCAUGUAGAAGGGACUAGCA [Mat - Exclusion 2 - JL mod - D14]”, the “apparent KD of MS2 coat protein” value was 90.5 nM in the data set on MS2 coat protein [1] and 29.8 nM in the data set with MS2 coat protein [2].
Regarding “AAAAAACAUGAGGAUCACCCAUGUGAGGAUAUCGAAAAGUCAAAGAAAAAGACGAAAACGAGAAGGCACAAAAA [Mat - Mod of Eli 2]”, the “apparent KD of MS2 coat protein” value in the data set with MS2 coat protein [1] was found to be 43.6 nM; in the data set with MS2 coat protein [2], 28.1 nM.
On the same counts, the results for “AAGAAGUCAGGAUAUGCUGCUCGUCACUUGCGUGAUGAGUAGCAGAAGGGACAUGAGGAUCACCCAUGUAAAGA [Exclusion4-cac2]” are 65.6 nM and 50.7 nM.
For “AAAAGACAUGAGGAUCACCCAUGUGAGGAUAUCGGAAAAGGAAAAAAAAAAAAGAAGACGAGAAGGCACACCAA” the same measures were 33.8 nM and 42.5 nM.
Regarding “AGCAAACAUGAGGAUCACCCAUGUGAGGAUAUGAACGAAAAUAAAUAAAAAUAAAAGUUCAGAAGGCACGAGCA [66%, Wbt, 26]”, the figures for the “apparent KD of MS2 coat protein” value with MS2 coat protein [1] and in the data set with MS2 coat protein [2] were 35.6 nM and 30.4 nM, respectively.
With “AACAGUACAGGAUAUACAUGAGGAUCACCCAUGUCAGAAUUAAGCAGCGUAACACAAAGUAGAAGGGUAAUGGA [Ruby 18]”, the “apparent KD of MS2 coat protein” value in the data set with MS2 coat protein [1] was 41.1 nM; with MS2 coat protein [2], 46 nM.
For the sequence “AAAAAUUGAGGAUAUACGAACAUGUCAAAAGACGUGAAGGGACAUGAGGAUCACCCAUGUAGAAGGCGAAAGAA [JL Loop Breaker 1]”, the “apparent KD of MS2 coat protein” value with MS2 coat protein [1] is 19.9 nM; with MS2 coat protein [2], 45.1 nM.
With “AAAAAGUCAGGAUAUACGAAAAAAAAAAAAAAAAAAAAAAAGUAGAAGGGACAUGAGGAUCACCCAUGUAAAAA [Exclusion 4]”, the “apparent KD of MS2 coat protein” value came out at 27.1 nM in the data set on MS2 coat protein [1] and 88.9 nM in the data set on MS2 coat protein [2].
On the same counts, the results for “AGAACGUCAGGAUAUCGAACAACAAGUAAAUAGAGAAGAAGCGAGAAGGGACAUGAGGAUCACCCAUGUAAGAA [e4-3]” are 48.9 nM and 62.5 nM.
Take “AAGAACAGAGGAUAUACAAAAUAAAAGAAAAGAAAGAAAGAACAUGAGGAUCACCCAUGUAGAAGGCUGAAGAA [Sonbef]”: the figures for the “apparent KD of MS2 coat protein” value with MS2 coat protein [1] and in the data set with MS2 coat protein [2] were 24.1 nM and 28.2 nM, respectively.
Take “AGAAAGUCAGGAUAUACGAAAGUGCGAAAGCACACAAGGGAACAUGAGGAUCACCCAUGUAGAAGGGACAAGAA [Diamond 78]”: the “apparent KD of MS2 coat protein” value turned out to be 91.7 nM in the data set on MS2 coat protein [1] and 70.9 nM with MS2 coat protein [2].
On the same counts, the results for “CUCAUGUCAGGAUAUGUCAAAAGUCACAAAAGUGACAAAAGACAGAAGGGACAUGAGGAUCACCCAUGUAAAAA [Starry Exclusion 4.6 (starryjess round 1 mod)]” are 15.5 nM and 20.6 nM.
As for “AAAGGACAUGAGGAUCACCCAUGUGAGGAUAUCGGAAAAGGAAAAAUAAAAAAGAAGACGAGAAGGCACACCAA [Mat - Exclusion 1 - Eli mod - D76]”, the “apparent KD of MS2 coat protein” value with MS2 coat protein [1] worked out at 59.8 nM; in the data set on MS2 coat protein [2], 80.6 nM.
On the same counts, the results for “ACUGAUACAGGAUAUACGUGAGUGGAAAAAGUGUUUCCACUACAUGAGGAUCACCCAUGUAGAAGGGUAUCAGA [Ex2 Design 180: Random 6]” are 91.5 nM and 77.4 nM.
Turning to “GAAAACCUAGGAUAUACAUGAGGAUCACCCAUGUCAGUAGACUGGGAAAGGUCUCUCAGUAGAAGGAGGACCCG [Zaered]”, the “apparent KD of MS2 coat protein” value with MS2 coat protein [1] worked out at 437 nM; with MS2 coat protein [2], 509 nM.
Turning to “AAAAAACAUGAGGAUCACCCAUGUAAGGAUAUGCUGAAAAAAACCUGGAAAACAGGCAGCAGAAGGUACAAAAA [66%, Wbt, 36]”, the “apparent KD of MS2 coat protein” value in the data set with MS2 coat protein [1] was found to be 35.6 nM; in the data set on MS2 coat protein [2] it was 23.9 nM.
As for “AACAAACAUGAGGAUCACCCAUGUCAGGAUAUGCAUAAAUAAAUAAAUAAAUAAAUAAGCAGAAGGGACACAAC [Amethyst 90]”, the “apparent KD of MS2 coat protein” value in the data set with MS2 coat protein [1] is 53.3 nM; in the data set with MS2 coat protein [2], 45.1 nM.
For “AAGAAUGGAGGAUAUACAAAAUAAAAGAAAAGAAAGAAAGAACAUGAGGAUCACCCAUGUAGAAGGCCAAAGAA [Khasekhemre Neferhotep I]” the same measures were 24.7 nM and 33.6 nM.
On the same counts, the results for “AACUGACAUGAGGAUCACCCAUGUCAGGAUAUGCUUAAUAAAAAAAAAAAAAAAUGAUGCAGAAGGGAUAUGGG [Amethyst 56]” are 18.9 nM and 23.7 nM.
On the same counts, the results for “AAAAGACAUGAGGAUCACCCAUGUGAGGAUAUGCAAAACCCAUAUAAAAAGGGAAAAAGCAGAAGGUACAAAAA [wbt round 1 mod 13]” are 40.5 nM and 29.6 nM.
Take “AAAAAACAUGAGGAUCACCCAUGUGAGGAUAUACUAAACAAAAAAAACAAAAACAAAUGUAGAAGGCACAAAAA [Amethyst 36]”: the “apparent KD of MS2 coat protein” value in the data set on MS2 coat protein [1] worked out at 23 nM; with MS2 coat protein [2] it was 19 nM.
Turning to “AAGAACAGAGGAUAUACAUGAGGAUCACCCAUGUAAAAGAAAGAGGGAAAAGAGAAAAGUAGAAGGCUGAAGAA [Arsinoe III]”, the figures for the “apparent KD of MS2 coat protein” value in the data set with MS2 coat protein [1] and in the data set with MS2 coat protein [2] were 31 nM and 26.9 nM, respectively.
For “AAAAAGGGAGGAUAUACAUGAGUAGAUCGUGUAAAAAAAAUACAUGAGGAUCACCCAUGUAGAAGGCCCAAAAA [Ecxl-III]” the same measures were 31.5 nM and 96.8 nM.
For “AGGAAACAUGAGGAUCACCCAUGUGAGGAUAUAGAAAAGAAAAGAAAAGAAAGAAGAACUAGAAGGUACAAGAA [Menkauhor Kaiu]” the same measures were 26.8 nM and 21 nM.
“CCGAGGCGAGGAUAUAUGAAGGACACAACAUUUAGGGUAAGACAUGAGGAUCACCCAUGUAGAAGGCGCGACGC [Ex2_Neo]”: the “apparent KD of MS2 coat protein” value in the data set on MS2 coat protein [1] is 38.7 nM; in the data set with MS2 coat protein [2] it was 74.5 nM.
For the sequence “AAACGUUGAGGAUAUACAGAAGGGUAUAAAUCAAAAAAAACACAUGAGGAUCACCCAUGUAGAAGGCAACGAAA”, the entries for the “apparent KD of MS2 coat protein” value with MS2 coat protein [1] and in the data set on MS2 coat protein [2] were 50.4 nM and 98.9 nM, respectively.
On the same counts, the results for “AAAGUGUGAGGAUAUGUCAAAGGACACGAAAGUGACAAAGGACAGAAGGUACAUGAGGAUCACCCAUGUAAAAA [milkweed 18]” are 20.6 nM and 27.3 nM.
Regarding “CCUCGACAUGAGGAUCACCCAUGUUAGGAUAUAUACAAACCCGAAAACCAAGGGCAAAAUAGAAGGAACGUGCA [Masoedma]”, the “apparent KD of MS2 coat protein” value with MS2 coat protein [1] stood at 19.2 nM; in the data set with MS2 coat protein [2] it was 14.8 nM.
For “AAAAAGGGAGGAUAUACAUGAGGAUCACCCAUGUGAAAGACGAAAAAGAGUCUAAAAAGUAGAAGGCCCAAAAA [65%, Moding Exclusion3-cac2, 9]”, the “apparent KD of MS2 coat protein” value with MS2 coat protein [1] came out at 43 nM; in the data set on MS2 coat protein [2], 33.5 nM.
On the same counts, the results for “AGUUGGCGAGGAUAUACAUGAGGAUCACCCAUGUAAAAUAAAUAAAAAGGGAAAAAGAGUAGAAGGCGCUGACA [73%, Moding Norbert Elias, 8]” are 192 nM and 42.6 nM.
For the sequence “AACAUGUCAGGAUAUAAAAGAAAAGAAAAGAAAGAAAAGAAUUAGAAGGGACAUGAGGAUCACCCAUGUAAGAA [EteRNA is fun!]”, the “apparent KD of MS2 coat protein” value in the data set with MS2 coat protein [1] was determined as 28.9 nM; with MS2 coat protein [2], 33 nM.
For “AAAAAUGGAGGAUAUACGUACAUGUCAAAAGACGUGAAGGGACAUGAGGAUCACCCAUGUAGAAGGCUAAAAAA [JL Stem Breaker 7]” the same measures were 29.5 nM and 80.1 nM.
On the same counts, the results for “AACUGUACAGGAUAUACAUGAGGAUCACCCAUGUGAGAAUUAAGUGGAGAACCACAAAGUAGAAGGGUACAGGA [Mat - Exclusion 3 - JL mod - D17]” are 218 nM and 45.7 nM.
